# B1: human recombinant kyn-3-OHase (Homo sapiens) (protein)
# chain: MDSSVIQRKKVAVIGGGLVGSLQACFLAKRNFQIDVYEAREDTRVATFTRGRSINLALSHRGRQALKAVGLEDQIVSQGIPMRARMIHSLSGKKSAIPYGTKSQYILSVSRENLNKDLLTAAEKYPNVKMHFNHRLLKCNPEEGMITVLGSDKVPKDVTCDLIVGCDGAYSTVRSHLMKKPRFDYSQQYIPHGYMELTIPPKNGDYAMEPNYLHIWPRNTFMMIALPNMNKSFTCTLFMPFEEFEKLLTSNDVVDFFQKYFPDAIPLIGEKLLVQDFFLLPAQPMISVKCSSFHFKSHCVLLGDAAHAIVPFFGQGMNAGFEDCLVFDELMDKFSNDLSLCLPVFSRLRIPDDHAISDLSMYNYIEMRAHVNSSWFIFQKNMERFLHAIMPSTFIPLYTMVTFSRIRYHEAVQRWHWQKKVINKGLFFLGSLIAISSTYLLIHYMSPRSFLCLRRPWNWIAHFRNTTCFPAKAVDSLEQISNLISR
# Substrate: Nc1ccccc1C(=O)C[C@H](N)C(=O)O
# Test: cells, lysate or membranes named
# Details: other: L-kynurenine 1 to 4,000 μM, OD600 = 0.6, IPTG 1 mM, 2 h at 37° C.
protein,measurement,value
B1,Km,57 ± 2 µM
same,Vmax,10.5±0.11 nmol/hour.mg of protein
